Results on 4 molecules are retold here after paper PMC5563082 (2017).

What all share (experiment): SPR
In assay [1] the target is T1, human NL1(–A+B)_(ECTO), immobilised for SPR (human, biotin on the Avitag (in vivo biotinylation by BirA); N-linked glycan at Asn300).
T1 chain: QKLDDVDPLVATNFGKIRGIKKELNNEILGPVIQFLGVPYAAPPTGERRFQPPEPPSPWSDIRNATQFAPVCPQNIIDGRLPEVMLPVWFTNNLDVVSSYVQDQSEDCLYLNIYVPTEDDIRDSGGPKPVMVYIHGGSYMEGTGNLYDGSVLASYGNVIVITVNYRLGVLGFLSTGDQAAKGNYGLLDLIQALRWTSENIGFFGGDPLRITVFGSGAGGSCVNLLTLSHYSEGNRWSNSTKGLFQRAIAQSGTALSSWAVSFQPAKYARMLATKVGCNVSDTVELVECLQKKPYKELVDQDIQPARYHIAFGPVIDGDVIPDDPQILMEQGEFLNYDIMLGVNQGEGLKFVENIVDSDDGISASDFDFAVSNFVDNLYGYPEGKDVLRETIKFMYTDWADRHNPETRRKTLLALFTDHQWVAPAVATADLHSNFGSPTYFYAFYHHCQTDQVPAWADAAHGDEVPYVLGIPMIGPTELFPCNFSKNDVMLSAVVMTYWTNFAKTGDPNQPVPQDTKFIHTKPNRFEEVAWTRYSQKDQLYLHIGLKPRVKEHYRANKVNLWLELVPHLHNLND

The target in assay [2] is T2, human NL1(+A1–B)_(ECTO), immobilised for SPR (human, biotin on the Avitag (in vivo biotinylation by BirA)).
T2 chain: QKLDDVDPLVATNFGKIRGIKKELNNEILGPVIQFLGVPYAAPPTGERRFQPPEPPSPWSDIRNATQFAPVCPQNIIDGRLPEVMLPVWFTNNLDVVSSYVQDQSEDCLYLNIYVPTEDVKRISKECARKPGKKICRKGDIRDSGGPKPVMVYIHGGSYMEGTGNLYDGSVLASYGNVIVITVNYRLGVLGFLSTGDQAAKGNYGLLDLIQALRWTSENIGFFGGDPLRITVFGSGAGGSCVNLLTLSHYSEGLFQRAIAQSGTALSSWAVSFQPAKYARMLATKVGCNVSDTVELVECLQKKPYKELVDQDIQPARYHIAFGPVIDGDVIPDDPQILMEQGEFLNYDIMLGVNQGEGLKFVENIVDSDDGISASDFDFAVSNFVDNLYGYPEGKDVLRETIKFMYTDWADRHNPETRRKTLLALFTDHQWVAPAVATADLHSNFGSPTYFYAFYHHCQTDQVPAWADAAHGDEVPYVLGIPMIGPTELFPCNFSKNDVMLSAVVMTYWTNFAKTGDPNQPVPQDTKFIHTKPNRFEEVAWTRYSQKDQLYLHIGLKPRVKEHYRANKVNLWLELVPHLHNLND

In assay [3] the target is T3, human NL1(+A2–B)_(ECTO), immobilised for SPR (human, biotin on the Avitag (in vivo biotinylation by BirA)).
T3 chain: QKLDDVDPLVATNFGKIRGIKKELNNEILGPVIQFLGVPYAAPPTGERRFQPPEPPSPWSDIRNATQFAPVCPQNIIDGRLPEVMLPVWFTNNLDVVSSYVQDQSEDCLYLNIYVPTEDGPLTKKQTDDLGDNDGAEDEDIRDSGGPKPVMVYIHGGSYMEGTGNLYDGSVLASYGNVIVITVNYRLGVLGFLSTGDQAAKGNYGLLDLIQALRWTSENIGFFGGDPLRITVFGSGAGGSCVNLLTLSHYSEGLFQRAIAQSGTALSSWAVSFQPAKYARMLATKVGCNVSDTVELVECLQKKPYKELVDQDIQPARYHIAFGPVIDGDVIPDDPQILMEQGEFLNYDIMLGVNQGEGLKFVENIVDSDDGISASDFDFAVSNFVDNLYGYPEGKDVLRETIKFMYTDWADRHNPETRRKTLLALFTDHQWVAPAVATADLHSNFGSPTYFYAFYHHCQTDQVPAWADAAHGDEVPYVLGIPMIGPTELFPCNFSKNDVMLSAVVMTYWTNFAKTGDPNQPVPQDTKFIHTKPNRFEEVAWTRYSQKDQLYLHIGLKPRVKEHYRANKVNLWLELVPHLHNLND

The target in assay [4] is T4, human NL1(+A1+A2–B)_(ECTO), immobilised for SPR (human, biotin on the Avitag (in vivo biotinylation by BirA)).
T4 chain: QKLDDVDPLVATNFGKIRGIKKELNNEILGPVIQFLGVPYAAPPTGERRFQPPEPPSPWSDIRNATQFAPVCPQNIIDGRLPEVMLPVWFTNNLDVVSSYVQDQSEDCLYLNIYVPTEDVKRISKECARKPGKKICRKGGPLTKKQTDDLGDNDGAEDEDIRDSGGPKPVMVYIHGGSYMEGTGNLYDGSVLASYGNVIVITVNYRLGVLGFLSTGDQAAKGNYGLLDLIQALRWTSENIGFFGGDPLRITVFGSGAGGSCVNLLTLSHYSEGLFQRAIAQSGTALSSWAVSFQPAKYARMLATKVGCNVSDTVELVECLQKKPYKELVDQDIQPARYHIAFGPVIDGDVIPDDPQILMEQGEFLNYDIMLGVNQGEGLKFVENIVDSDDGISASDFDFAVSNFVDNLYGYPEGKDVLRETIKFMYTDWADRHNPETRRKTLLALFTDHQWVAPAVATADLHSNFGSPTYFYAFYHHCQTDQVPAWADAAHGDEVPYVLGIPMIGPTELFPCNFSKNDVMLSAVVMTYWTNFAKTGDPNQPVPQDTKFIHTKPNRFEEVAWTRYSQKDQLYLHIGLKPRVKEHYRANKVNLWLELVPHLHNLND

B1: human MDGA2 extracellular domain (MDGA2_(ECTO); Gln21-Lys927) (domain or fragment)
chain: QGVYAPPTVRIVHSGLACNIEEERYSERVYTIREGETLELTCLVTGHPRPQIRWTKTAGSASDRFQDSSVFNETLRITNIQRHQGGRYYCKAENGLGSPAIKSIRVDVYYLDDPVVTVHQSIGEAKEQFYYERTVFLRCVANSNPPVRYSWRRGQEVLLQGSDKGVEIYEPFFTQGETKILKLKNLRPQDYANYSCIASVRNVCNIPDKMVSFRLSNKTASPSIKLLVDDPIVVNPGEAITLVCVTTGGEPAPSLTWVRSFGTLPEKTVLNGGTLTIPAITSDDAGTYSCIANNNVGNPAKKSTNIIVRALKKGRFWITPDPYHKDDNIQIGREVKISCQVEAVPSEELTFSWFKNGRPLRSSERMVITQTDPDVSPGTTNLDIIDLKFTDFGTYTCVASLKGGGISDISIDVNISSSTVPPNLTVPQEKSPLVTREGDTIELQCQVTGKPKPIILWSRADKEVAMPDGSMQMESYDGTLRIVNVSREMSGMYRCQTSQYNGFNVKPREALVQLIVQYPPAVEPAFLEIRQGQDRSVTMSCRVLRAYPIRVLTYEWRLGNKLLRTGQFDSQEYTEYAVKSLSNENYGVYNCSIINEAGAGRCSFLVTGKAYAPEFYYDTYNPVWQNRHRVYSYSLQWTQMNPDAVDRIVAYRLGIRQAGQQRWWEQEIKINGNIQKGELITYNLTELIKPEAYEVRLTPLTKFGEGDSTIRVIKYSAPVNPHLREFHCGFEDGNICLFTQDDTDNFDWTKQSTATRNTKYTPNTGPNADRSGSKEGFYMYIETSRPRLEGEKARLLSPVFSIAPKNPYGPTNTAYCFSFFYHMYGQHIGVLNVYLRLKGQTTIENPLWSSSGNKGQRWNEAHVNIYPITSFQLIFEGIRGPGIEGDIAIDDVSIAEGECAKQDLATK
Regarding B1, the Kd stood at 9630 nM in assay [1], 1200 nM in assay [2], 1460 nM in assay [3] and 1410 nM in assay [4].

B2: human MDGA1 extracellular domain (MDGA1_(ECTO); Gln19-Lys925) (domain or fragment)
chain: QGVYAPAQAQIVHAGQACVVKEDNISERVYTIREGDTLMLQCLVTGHPRPQVRWTKTAGSASDKFQETSVFNETLRIERIARTQGGRYYCKAENGVGVPAIKSIRVDVQYLDEPMLTVHQTVSDVRGNFYQEKTVFLRCTVNSNPPARFIWKRGSDTLSHSQDNGVDIYEPLYTQGETKVLKLKNLRPQDYASYTCQVSVRNVCGIPDKAITFRLTNTTAPPALKLSVNETLVVNPGENVTVQCLLTGGDPLPQLQWSHGPGPLPLGALAQGGTLSIPSVQARDSGYYNCTATNNVGNPAKKTVNLLVRSMKNATFQITPDVIKESENIQLGQDLKLSCHVDAVPQEKVTYQWFKNGKPARMSKRLLVTRNDPELPAVTSSLELIDLHFSDYGTYLCMASFPGAPVPDLSVEVNISSETVPPTISVPKGRAVVTVREGSPAELQCEVRGKPRPPVLWSRVDKEAALLPSGLPLEETPDGKLRLERVSRDMSGTYRCQTARYNGFNVRPREAQVQLNVQFPPEVEPSSQDVRQALGRPVLLRCSLLRGSPQRIASAVWRFKGQLLPPPPVVPAAAEAPDHAELRLDAVTRDSSGSYECSVSNDVGSAACLFQVSAKAYSPEFYFDTPNPTRSHKLSKNYSYVLQWTQREPDAVDPVLNYRLSIRQLNQHNAVVKAIPVRRVEKGQLLEYILTDLRVPHSYEVRLTPYTTFGAGDMASRIIHYTEPINSPNLSDNTCHFEDEKICGYTQDLTDNFDWTRQNALTQNPKRSPNTGPPTDISGTPEGYYMFIETSRPRELGDRARLVSPLYNASAKFYCVSFFYHMYGKHIGSLNLLVRSRNKGALDTHAWSLSGNKGNVWQQAHVPISPSGPFQIIFEGVRGPGYLGDIAIDDVTLKKGECPRKQTDPNK
Regarding B2, the Kd in assay [1] was found to be 13200 nM; in assay [2] it was 2080 nM; in assay [3], 3210 nM; in assay [4], 3050 nM.

B3: human β-neurexin-1 LNS6 domain with SS4 (β-NRX1_(LNS6)(+4)) (domain or fragment)
chain: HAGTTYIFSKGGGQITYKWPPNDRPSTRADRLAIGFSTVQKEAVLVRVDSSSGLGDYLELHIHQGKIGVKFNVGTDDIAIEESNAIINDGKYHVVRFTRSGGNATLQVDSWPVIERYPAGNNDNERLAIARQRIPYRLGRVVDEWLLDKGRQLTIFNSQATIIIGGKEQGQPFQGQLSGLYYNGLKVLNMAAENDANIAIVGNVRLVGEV
For B3, the Kd turned out to be 4760 nM in assay [1], 2820 nM in assay [2], 2750 nM in assay [3] and 2710 nM in assay [4].

B4: human β-neurexin-1 LNS6 domain lacking SS4 (β-NRX1_(LNS6)(–4); His85-Val265) (domain or fragment)
chain: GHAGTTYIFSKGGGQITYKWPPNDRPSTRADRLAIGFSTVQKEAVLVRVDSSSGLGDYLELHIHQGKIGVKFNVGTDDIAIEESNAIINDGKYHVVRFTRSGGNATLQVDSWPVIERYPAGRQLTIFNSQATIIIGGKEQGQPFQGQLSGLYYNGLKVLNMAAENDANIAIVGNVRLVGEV
As for B4, the Kd in assay [1] was found to be 1160 nM; in assay [2], 766 nM; in assay [3] it was 795 nM; in assay [4] it was 784 nM.
